Consider one substance from US20260256840A1.

In experiment [1] the target is NY-ESO TCR with the D111K modification in the TRBC constant region (human). The experiment is described as follows: flow cytometry of CD8+ T cells, FITC-BW242/412 against PE NY-ESO dextramer (FIG. 9). Background: A flow cytometer gives signals particle by particle.
Experiment [2] deals with unmodified NY-ESO TCR (wild-type TCR beta constant domain) (human). The experiment is described as above.
For experiment [3], the target named is HIT receptor with the D111K mutation in the TCR beta constant region (human). The experiment is described as follows: anti-TCR bead negative selection of T cells, cell count and flow cytometry (FIG. 7).
Experiment [4] has as its target NY-ESO TCR with the D111K modification in the TRBC constant region (human). The experiment is described as follows: anti-TCR negative selection of T cells, flow cytometry.

For the substance BW242/412 anti-TCR antibody, the values for the % of the NY-ESO dextramer-positive population not stained by the anti-TCR antibody in experiment [1] and in experiment [2] were 60% and 0%, respectively. Further, the % recovery of HIT+ cells after BW242/412 negative selection (cells not bound by the antibody) in experiment [3] worked out at 57.7%. Besides, the % recovery post purification (BW242/412 negative selection) in experiment [4] turned out to be 80%.
